Measured values: US20260092115A1 (Chugai, published 2026)

T1: human FcγRIIb extracellular domain, His-tagged (human, UniProt P31994 43-217)
T1 construct: extracellular domain; also called hFcγR IIb
T1 sequence (looked up): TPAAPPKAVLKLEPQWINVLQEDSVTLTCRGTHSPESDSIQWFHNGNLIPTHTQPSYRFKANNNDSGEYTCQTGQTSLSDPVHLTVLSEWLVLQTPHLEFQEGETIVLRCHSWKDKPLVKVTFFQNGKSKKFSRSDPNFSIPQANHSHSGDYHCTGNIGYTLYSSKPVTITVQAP

T2: human FcγRIIa, type R, extracellular domain, His-tagged (human, UniProt P12318 34-217)
T2 construct: extracellular domain; also called hFcγR IIa R
T2 sequence (looked up): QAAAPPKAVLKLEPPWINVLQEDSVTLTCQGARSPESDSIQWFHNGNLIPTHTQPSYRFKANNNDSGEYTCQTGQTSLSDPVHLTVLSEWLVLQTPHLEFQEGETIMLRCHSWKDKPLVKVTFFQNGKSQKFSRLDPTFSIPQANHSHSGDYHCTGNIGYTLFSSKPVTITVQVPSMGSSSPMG

T3: human FcγRIIa, type H, extracellular domain, His-tagged (human, UniProt P12318 34-217)
T3 construct: extracellular domain; also called hFcγR IIa H
T3 sequence (looked up): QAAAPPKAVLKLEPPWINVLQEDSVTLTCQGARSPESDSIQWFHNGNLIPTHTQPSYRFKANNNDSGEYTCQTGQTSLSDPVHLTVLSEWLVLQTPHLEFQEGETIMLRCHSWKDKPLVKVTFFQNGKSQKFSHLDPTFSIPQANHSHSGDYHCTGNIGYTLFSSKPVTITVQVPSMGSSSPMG

B1: 04H1654-KT481/04L1610-lam1//04H1656-HT498/04L1610-lam1 (antibody, IgG1)
heavy 1: QVQLVESGGGVVQPGGSLRLSCAASGFTFSSKTMNWVRQAPGKGLEWVSSISTQSHYIYYARSVRGRFTISRDNAKNSLYLQMNSLRAEDTAVYYCARYGKREDMLWVFDYWGQGTLVTVSSASTKGPSVFPLAPSSKSTSGGTAALGCLVKDYFPEPVTVSWNSGALTSGVHTFPAVLQSSGLYSLSSVVTVPSSSLGTQTYICNVNHKPSNTKVDKRVEPKSCDKTHTCPPCPAPEFQWGPMVFLFPPKPKDVLMISRTPEVTCVVVDVSDEEPEVKFNWYVDGVEVHNAKTKPREEQYNATYRVVSVLPVLHQDWLNGKEYKCKVSNDALPAPEEKTISKAKGQPREPQVYTLPPSRKEMTKNQVSLTCLVKGFYPSDIAVEWESNGQPENNYKTTPPVLDSDGSFFLYSKLTVDKSRWQQGNVFSCSVMHEALHAHTTRKELSLSP
heavy 2: QVQLVESGGGVVQPGGSLRLSCAASGFTFSSKTMNWVRQAPGKGLEWVSSISTQSHYIYYAESVRGRFTISRDNAKNSLYLQMNSLRAEDTAVYYCARYGAREDMLWVFDYWGQGTLVTVSSASTKGPSVFPLAPSSKSTSGGTAALGCLVKDYFPEPVTVSWNSGALTSGVHTFPAVLQSSGLYSLSSVVTVPSSSLGTQTYICNVNHKPSNTKVDKRVEPKSCDKTHTCPPCPAPELLAGPSVFLFPPKPKDVLMISRTPEVTCVVVDVSHEEPEVKFNWYVDGVEVHNAKTKPREEQYNATYRVVSVLPVLHQDWLNGKEYKCKVSNDALPAPEEETISKAKGQPREPQVYTLPPSREEMTKNQVSLTCLVKGFYPSDIAVEWESNGQPENNYKTTPPVLDSDGSFFLYSKLTVDKSRWQQGNVFSCSVMHEALHAHTTREELSLSP
light: QSALTQPPSASGSPGQSVTISCEGPSTGVGDYNWVHWYQQHPGKAPKLMIYFTSKKPSGVPDRFSGSKSGNTASLTVSGLQAEDEADYYCQTYAAPLGPMFGGGTKLTVLGQPKAAPSVTLFPPSSEELQANKATLVCLISDFYPGAVTVAWKADSSPVKAGVETTTPSKQSNNKYAASSYLSLTPEQWKSHRSYSCQVTHEGSTVEKTVAPTECS
notes: Heterodimerized IgG1 Fc variant with N434A/Y436T/Q438R/S440E
B2: 04H1654-KT481/04L1612-lam1//04H1656-HT498/04L1612-lam1 (antibody, IgG1)
heavy 1: QVQLVESGGGVVQPGGSLRLSCAASGFTFSSKTMNWVRQAPGKGLEWVSSISTQSHYIYYARSVRGRFTISRDNAKNSLYLQMNSLRAEDTAVYYCARYGKREDMLWVFDYWGQGTLVTVSSASTKGPSVFPLAPSSKSTSGGTAALGCLVKDYFPEPVTVSWNSGALTSGVHTFPAVLQSSGLYSLSSVVTVPSSSLGTQTYICNVNHKPSNTKVDKRVEPKSCDKTHTCPPCPAPEFQWGPMVFLFPPKPKDVLMISRTPEVTCVVVDVSDEEPEVKFNWYVDGVEVHNAKTKPREEQYNATYRVVSVLPVLHQDWLNGKEYKCKVSNDALPAPEEKTISKAKGQPREPQVYTLPPSRKEMTKNQVSLTCLVKGFYPSDIAVEWESNGQPENNYKTTPPVLDSDGSFFLYSKLTVDKSRWQQGNVFSCSVMHEALHAHTTRKELSLSP
heavy 2: QVQLVESGGGVVQPGGSLRLSCAASGFTFSSKTMNWVRQAPGKGLEWVSSISTQSHYIYYAESVRGRFTISRDNAKNSLYLQMNSLRAEDTAVYYCARYGAREDMLWVFDYWGQGTLVTVSSASTKGPSVFPLAPSSKSTSGGTAALGCLVKDYFPEPVTVSWNSGALTSGVHTFPAVLQSSGLYSLSSVVTVPSSSLGTQTYICNVNHKPSNTKVDKRVEPKSCDKTHTCPPCPAPELLAGPSVFLFPPKPKDVLMISRTPEVTCVVVDVSHEEPEVKFNWYVDGVEVHNAKTKPREEQYNATYRVVSVLPVLHQDWLNGKEYKCKVSNDALPAPEEETISKAKGQPREPQVYTLPPSREEMTKNQVSLTCLVKGFYPSDIAVEWESNGQPENNYKTTPPVLDSDGSFFLYSKLTVDKSRWQQGNVFSCSVMHEALHAHTTREELSLSP
light: QSALTQPPSASGSPGQSVTISCEGPSTGVGDYTYVHWYQQHPGKAPKLMIYFTSKKPSGVPDRFSGSKSGNTASLTVSGLQAEDEADYYCQTYAAPLGPMFGGGTKLTVLGQPKAAPSVTLFPPSSEELQANKATLVCLISDFYPGAVTVAWKADSSPVKAGVETTTPSKQSNNKYAASSYLSLTPEQWKSHRSYSCQVTHEGSTVEKTVAPTECS
notes: as for B1

How the values were obtained:
[1] = biological target: T1, human FcγRIIb extracellular domain, …; assay: binding amount of this antibody divided by that of 04H1637-G1m/04L1610-lam1; SPR pH 7.4
human FcRn = biological target: T4, human FcRn (human, UniProt P55899 24-290; P61769 21-119); assay: KD of 04H1637-G1m/04L1610-lam1 divided by KD of this antibody; SPR pH 6.0
T4 construct: Prepared by the method of WO 2010/107110; also called hFcRn
T4 sequence (P55899 24-290 limits assumed, chain 1 of 2): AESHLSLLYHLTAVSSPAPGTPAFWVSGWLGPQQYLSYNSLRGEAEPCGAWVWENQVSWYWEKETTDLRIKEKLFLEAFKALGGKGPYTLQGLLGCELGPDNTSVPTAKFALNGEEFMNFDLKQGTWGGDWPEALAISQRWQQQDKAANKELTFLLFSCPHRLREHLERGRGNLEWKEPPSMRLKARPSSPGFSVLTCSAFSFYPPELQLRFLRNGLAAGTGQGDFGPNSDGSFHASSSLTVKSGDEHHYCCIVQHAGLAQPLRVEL
T4 sequence (P61769 21-119 limits assumed, chain 2 of 2): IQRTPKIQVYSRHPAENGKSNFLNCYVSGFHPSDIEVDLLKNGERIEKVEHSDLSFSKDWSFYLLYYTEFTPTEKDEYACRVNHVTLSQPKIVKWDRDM
Method: The interaction between the generated antibodies and human FcRn was analyzed by the following method using Biacore T200. 50 mM Na-Phosphate, 150 mM NaCl, 0.05% Tween20 (pH 6.0) was used as the running buffer, and the assay was performed at 25° C. For the sensor chip, Series S SA (GE Healthcare) chips onto which CaptureSelect Human Fab-lambda Kinetics Biotin Conjugate (Thermo Fisher Scientific) was immobilized were used. The antibodies of interest were captured onto these chips and FcRn diluted in the running buffer was allowed to interact with them. Chips were regenerated with 10 mM Glycine-HCl (pH 1.5) and 25 mM NaOH, and assay was performed by repeatedly capturing antibodies. The dissociation constant for FcRn of each antibody was calculated using the steady state model, using Biacore T200 Evaluation Software 2.0.
“Relative value to KD between G1m and hFcRn” and “Relative value to KD between G1m and hFcγRs” are values obtained by dividing the KD value of 04H1637-G1m/04L1610-lam1 for hFcRn and for each FcγR by the KD value of each variant, respectively. “Relative binding amount” indicates the value obtained by dividing the binding amount of each variant to FcγRIIb by the binding amount of 04H1637-G1m/04L1610-lam1. […] It was shown that all of the generated heterodimerized antibodies had enhanced binding to FcγRIIa and FcγRIIIa as compared with 04H1637-G1m/04L1610-lam1 which has the constant region of native human IgG1. Furthermore, 04H1637-Kn462/04L1610-lam1//04H1637-H1441/04L1610-lam1, 04H1637-Kn462/04L1610-lam1//04H1637-H1445/04L1610-lam1, and 04H1637-Kn461/04L1610-lam1//04H1637-H1443/04L1610-lam1 were all shown to have enhanced binding to FcγRIIa compared to 04H1637-Kn125/04L1610-lam1//04H1637-H1076/04L1610-lam 1 which has the Fc region variant reported in WO 2013/002362.

[2] = biological target: T1, human FcγRIIb extracellular domain, …; assay: SPR Biacore T200, 25C, pH 7.4; FcγRIIb at 1000 nM, corrected by captured antibody
In short: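 Antibodies captured via anti-Fab-lambda on SA chip; FcγRs flowed in 50 mM Na-phosphate, 150 mM NaCl, 0.05% Tween20, pH 7.4, 25° C. KD by 1:1 Langmuir (FcγRIa, FcγRIIIa) or steady-state model (FcγRIIa); FcγRIIb binding normalised to captured antibody amount.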

[3] = biological target: T5, human FcγRIa extracellular domain, His-tagged (human, UniProt P12314 16-292); assay: KD of 04H1637-G1m/04L1610-lam1 divided by KD of this antibody; SPR pH 7.4
T5 construct: also called hFcγR Ia
T5 sequence (P12314 16-292): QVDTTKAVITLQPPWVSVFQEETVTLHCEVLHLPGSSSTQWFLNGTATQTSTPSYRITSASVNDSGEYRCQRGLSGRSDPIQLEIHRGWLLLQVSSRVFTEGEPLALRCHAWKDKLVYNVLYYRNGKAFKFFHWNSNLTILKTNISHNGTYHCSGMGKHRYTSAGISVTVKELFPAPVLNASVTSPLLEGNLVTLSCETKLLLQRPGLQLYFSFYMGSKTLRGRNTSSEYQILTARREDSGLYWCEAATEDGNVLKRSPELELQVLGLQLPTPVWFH

[4] = biological target: T2, human FcγRIIa, type R, extracellular …; assay: as above
[5] = biological target: T3, human FcγRIIa, type H, extracellular …; assay: as above
[6] = biological target: T6, human FcγRIIIa, allotype V158, extracellular domain, His-tagged (human, UniProt P08637 17-208); assay: as above
T6 construct: extracellular domain; also called hFcγR IIIa V
T6 sequence (P08637 17-208 F176V): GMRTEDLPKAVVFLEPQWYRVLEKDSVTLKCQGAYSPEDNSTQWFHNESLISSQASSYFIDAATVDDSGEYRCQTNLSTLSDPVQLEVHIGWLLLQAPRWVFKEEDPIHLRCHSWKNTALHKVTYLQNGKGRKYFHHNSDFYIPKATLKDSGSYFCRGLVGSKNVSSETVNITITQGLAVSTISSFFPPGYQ

[7] = biological target: T7, human FcγRIIIa, allotype F158, extracellular domain, His-tagged (human, UniProt P08637 17-208); assay: as above
T7 construct: extracellular domain; also called hFcγR IIIa F
T7 sequence (P08637 17-208): as the sequence (P08637 17-208 F176V) above, with V160F counted along it

Row | Binder | Relative binding amount [1] [ratio] | Relative value to KD between G1m and hFcRn (human FcRn) [ratio] | Binding amount [2] | Relative value to KD between G1m and hFcγRs [3] [ratio] | Relative value to KD between G1m and hFcγRs [4] [ratio] | Relative value to KD between G1m and hFcγRs [5] [ratio] | Relative value to KD between G1m and hFcγRs [6] [ratio] | Relative value to KD between G1m and hFcγRs [7] [ratio]
1 | B1 | 2.7 | 2.3 | 0.022 RU per RU of captured antibody | 1.5 | 7.7 | 6.5 | 152 | 495
2 | B2 | 2.8 | 2.2 | 0.022 RU per RU of captured antibody | 1.1 | 7.6 | 6.4 | 145 | 479
